Results as given in the nanobody polyreactivity screen of Harvey et al. (2022).

assay: yeast display, Sf9 membrane polyspecificity reagent, FACS + sequencing; frameworks hold sequencing errors
In short: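 Galactose induction of a Saccharomyces cerevisiae BJ5465 synthetic nanobody display library ran 36–48 hours. The cells were then stained for 1 hour at 4 °C with 10% biotinylated, detergent-solubilized Sf9 membrane reagent, pulled down on streptavidin microbeads and FACS-sorted into low and high (top ~1%) gates on expression and reagent-binding fluorescence. Labels for polyreactivity follow the gate of origin.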

Row | Sequence | polyreactivity (PSR sort gate)
1 | QVQRVESGGGLVQAGGSLRLSCAASGRNSQFYDMGWYRQAPGKERELVATISGGASTNYADSVKGRFTISRDNAKNTVYLQMNSLKPEDTAVYYCARAGRSWDTLYKYYLEHDYWGQGTQVTVSS | low polyreactivity
2 | QVQLVESVGGLVQAGGSLRLSCSASGRTFSYYTMGWYRQAPGKERELVADINTSVGSTDYADSVKGRFTISRDTAKNTVYLQMNSLKPEDTAVYYCQLIRRGHDYWGQGTQVTVSS | high polyreactivity
3 | QVQLVESGGGLVQAGGSLRLSCAASGSIFPVYAMGWYRPAPGKERELVAAISWIGGGTYYADSVKGRFTISRDNAKNTVYLQKHSLKPEDTAVYDCAAVPYTSEYDYWGQGTEVTVSS | high polyreactivity
4 | QVQLVESGGGLVQAGGSLRLSCAAYVRIFGYYAMGWYRQAPGKERELVAGISARGGSTYYADSVKGRLTISRDNAKNTVYLQMNSLKPEDTAVYYCAAYYLWPGYLFRPYDYWGHGTQVTVSS | low polyreactivity
5 | QVQLVESGGGLVQAGGSLRLSCAASGIIFHLYTMGWYRQAPGKERELVAAISNNGGRTYYADSVKGRFTISRDNAKNTVYLQMNSLKPEDTAVYYCAKYLSPGERHSYDYWGQGTQVTVSS | high polyreactivity
6 | QVQLVESGGGLVQAGGSLRLSCAASGIIFRGNALGWYRPAPGKERELVAAISRSGRTNYADSVKGRFTISRDNAKNTVYLQMNSLKPEDNAVYYCAVDKRYGRVVGRDYDYWGQGTQVTVSS | high polyreactivity
7 | QVQLVESGGGLVQAGGSLRLSCAASGSTFTPYAMGWYRPAPGKERELVATISSRGGSTSYADSVKGRFTISRDNAKNTVYLQMNSLKPEDTAVYYCARKVRRVARIMYYWGQGTQVTVSS | high polyreactivity
8 | QVQLVESGGGLVQAGGSLRLSCAASGSILTHYAMGWYRQAPGKERELVAGIPWSGTSTYYADSVKGRFTISRDNAKNTVYLQMNSLKPEDTAVYYCNARHYGWGFAWKYDYWGQGTQVTVSS | low polyreactivity
9 | QVRLVESGGGLVQAGGSLRLSCAASGSTFYPYDMGWYRQAPGKERELVATISSGVSTNYADSVKGRFTISRDNAKNTVYLQMNSLKPEDTAVYYCAVDYFIGDDDYWGQGTQVTVSS | low polyreactivity
10 | QVQLVESCVVLVQAGGSLRLSCAASGSIFGYYAMGWYRQAPGKERELVAAISDGGTITYYADSVKGRFTISRDHAKNTVYLQMNSLKPEVTAVYYCAARSPPRYYEHRFYYWGQGTQVTVSS | high polyreactivity
11 | QVQLVESGGVLVQSGGSLRLSCAASGLIFTWNAMGWYRQAPGKERELVAPISTGGSTSYADSVKGRFTISRDNAKNTVYLQMNSLKPEDTAVYYCARDSSIWSHGSWYDYWGQGTHVTVSS | low polyreactivity
12 | QVQLVESGGGLVQAGGSLRLSCAASGRIFAVNAMGWYRQAPGNERELVAAITRGGSTNYADSVKGRFTISRDNAKNTVYLQMNSLKPEDTAVYYCAARVYTSPPVRSAPTGYYYWGQGTQVTVSS | high polyreactivity
13 | QVQLVESGGGLVEAGVSLRISCAASGRIFAYNTMGWYRQAPGKERELVAAISWRGGSTYYADSVKGRFTISRDNEKNSVHLQRNSLKPEDTAVYYCAVLSSSLTRFDYWGQGSQVTVSS | high polyreactivity
14 | QVQRVESGGGLVQAGGSLRLSFAASGSTDGRYARGWYSQAPVQDTELVAAITRNGGRTYYADSVKGCFTISRDNAKNTVYLQMNSLKPEHTADEYCAASGRSQYGDYDDWGQGSQVTVSS | high polyreactivity
15 | QVQLVESGRGLVQAGGSLRLSSAASGSISLFLTMGWYRQAPGKERELVAAINYTDITKYADSVKGRFTISRDNAKNTVYLQMKSLKPDDTAVYYCARDEGYEYPLGRGGYWGQGTQVTVSS | low polyreactivity
16 | QVQLVESGGGLVQAGGSLRLSCAASGSIFSYYVMGWYRQAPGKERELVAAITRSGGSTYYADSVKGRFTISRDNAKNTVYLQMNRLKPEDTAVYYCAATYSHRRGDYWGQGTQVTVSS | high polyreactivity
17 | QVQLVESGGGLVQAGGSLRLSCAASGITFDYNAMGWYRPAPGKERELVASITTNDDSTYYADSVKGRFTISRDNAKNTVYLQINSLKPEDTAVYSCNADQITGQFDYWGQGTQVTVSS | low polyreactivity
18 | QVQLVESGGGLVQAGGSLRLSCAASGFTFSKYAMGWYLQAPGKERELVAAISRRGGSTYYADSVKGRFTISRDNAKNTVYLQMNSLKPEDTAVYYCAARYSVGTGYGYWGQGTQVTVSS | high polyreactivity
19 | QVQLVESGGGLVHAGGRLRLSCAASGRISGYAMAWYRQAPRTERELVAAISTRGGTTYYADSVKGRFTISRDNAKNTVYLQMNSLKPEDTAVYFCNAASSRWPEYDFWGQGTQVTVSS | high polyreactivity
20 | QVQLVESGGGLVQAGGSLRLSCAASGSIFYPNAMRWYRQAPGKQRELVAVITGGATTYYADSVKGRFTISRDYAKNTVYLQRNSLNPEDTAVDYCAADSAENVYRGYDWGQGTQVTVSS | low polyreactivity
21 | HVQLVESGGGLVQAGGSLRLSCAASGGIFVYYAMGWYRQAPGKVRELVAAISRSAASTYYADSVKGRFTISRDNAKNTVYLQMNSLKPEDTADYYCAAGQLTDKGGGDSWGQGTQVTVSS | low polyreactivity

Row | Sequence | polyreactivity (PSR sort gate)
22 | QVQLVESGGGLVQAGGSLRLTCAASASIFGSAMGWSRQAPGNEMELVASTTDADSVKGRFTISRDNAKNTVYLQMNSLKPEDTSVYYCAADDWDTVEMEYWGQVTQVTVSS | low polyreactivity
23 | QVQLVESGGGLVQAGGSLRLSCAASGSTFPYYAMGWYRQAPGKERELVAAISWRGTRTYYADSVKGRFTISRDNAKNTVYLQMNSLKPEDTAVYYCNAYHTPEYQEGGYYWGQGTQVTVSS | high polyreactivity
24 | QVQLVESGGGLVQAGGSLRLSCAASGRTFPGNAMGWYRQAPGKERELVAAISYSGGRTYYSDSVKGRFTISRDNAKNTVYLQMNRLKPEDTAVYYCAKSIVQPSVAAYYYWGQGTQVTVSS | high polyreactivity
25 | QVQIVESGGGLVQAGGSLRLSCAASGRTFWGNAMGWYRQAPGKERELVASISSRGSSTYYADSVKGRFTISRDNAKNTVYLQMNSLKPEDTAVYYCAARTHYFPWPWYVWDYYSDGYWGQGTQVTVSS | low polyreactivity
26 | QVQLVESGGGLVQAGGSLRLSCAASGRIFRNAMGWYRQAPGKERELVAAISSGGSTNYADSVKGRFTISRDNAKNTVYLQMNSLKPEDTAVYYCAADWDWWYQEFDYWGQGTQVTVSS | high polyreactivity
27 | QVQLVESGGGLVQAGGSLRLSCAASGRIFWYYPMGGYRQAPGKEREYVATINTSGGSTYYADSVKGRFTISRDNAKNTVYLQMNRLKPEDTAVYYCNAAYRFYRTEYYSWGQGTQVTVSS | low polyreactivity
28 | QVQLVESGGGLVQAGGSLRLSCAASGRTFRYYTMGWYRQAPGKERELVAVISRSGGNTYYADSVKGRFTISRDNAKNTVYLQMNSLKPEDTAVYYCAAKIALDNDYWGQGTQVTVSS | high polyreactivity
29 | QVQLLESGGAIVQAGGSHRLSCAASGSIFTHYAMGWYRQATGKERELVAGITSSGGSTYADSVKGRFTISRDNAKNSVYLQMISLKPEDTAVYYCAAEQLRSRLIEYDYWGQGTQVTVSS | low polyreactivity
30 | QVQLVESGGGLVQAGGSLRLSCAASGRTFTSNAMGWYRQAPGKESELVAVITTSGDRTFYADSVKGRFTISRDNAKNTVYLQMNSLKPEDTAVYYCAADVRLTRGFDYWVQGTQVTVSS | high polyreactivity
31 | QVQLVESGGGLVQAGGSLRLSCAASGGTFLGNAMGWYRQAPGKERELVADITSGGSTNYADSVKGRFTITRDNAKNTVYLQMNSLKPEDTAVYYCNARWWFQLYYYSTFAGYNYWGQGTQVTVSS | low polyreactivity
32 | QVQLVESGGGLVQAGGSHRLSCAASGRIFSVNAMGWYRQAPGKERELVASISWSGGSTYYADSVKGRFTISRDNAKNPVYLQMNSLKPEDTAVYYCNARIDSYGLDFDYWGQGTQVTVSS | low polyreactivity
33 | QVQLVESGGGLVQAGGSLRLSCAASGRTFFWYAMGWYRQAPGKERELVADISSSGGSTYYADSVKGRFTISRDNAKNTVYLQMNSLKPEDTAVYYCAALSPWWRGGYDYWGQGTQVTVSS | high polyreactivity
34 | QVQLVESGGGLVQAGGSLRLSCAASGSTFFPYAMGWYRQAPGKERELVAAITSGGRTKYADSVKGRFTISRDNAMNTVYLQMNSLKPEDTAVYYCAARGLIKEYGGPYRRFGYWGQGTQVTVSS | high polyreactivity
35 | QVQLVESGGGLVQAGCSLRISCAASGRTFSVYTMGWYRQAPGKERELVAAIRGRGGSTYYADSVKGRFTISRDNAKIPVYLQMNSLKPEDTAVYYCAARASIFGATFDYWGQGTQVTVSS | high polyreactivity
36 | QVQLVESGGGLVQAGGSLRLSCAASGRIFRRYAMGWYRQAPGKERELVAAISVTGGRTYYADSVKGRFTISRDNAKNTVYLQMNSLKPEDTAVYYCNTLQYQERYAYDYWGQGTQVTVSS | high polyreactivity
37 | QVQLVESGGGLVQAGGSLRLSCAASGSIFEYNAMGWYRQAPGKERELVAAITRGGNTYYADSVKGRFTISRDNAKNTVYLQMNSLKPEDTAVYYCAAVQWYGYPYYSWGQGTQVTVSS | low polyreactivity
38 | QVQLVESGGGLVQAGGSLRLSCAASGSTFNKYAMGWYRQAPGKEREFVAAITSSGGRTYYADSVKGRFTISRDNAKNTVYLQMNSLKPEDTAVYYCAARSYTYTAPIYGYWGQGTQVTVSS | high polyreactivity
39 | QVQLVESGGGLVQAGGSLRLSCAASGGTFRVYAMGWYRKAPGKERELVAAITGRGGSTYYADSVKGRFTISRDNAKNTVYLQMNSLKPEDTAVYDCAKDPVTTYYKYDYWGQGTQVTVSS | low polyreactivity
40 | QVQLVESGGCLVQAGGSLRLSCAASGFIIRYYAMGWYRQAPGKERELDAAITRGGSTYYADSVKGRFRISRDNAKNTVYLQMNSLNPEDTAVYYCAARLYTQYYYWGQGTQVNVSS | high polyreactivity
41 | QVQHVESGGGLVQAGGSLRLSCAASGRTFPINAMGWYRPAPGKERELVARISRTSGSTYYADSVKGRFTISRDNAKNTVYLQMNSLKPEDTAVYYCAAVRDKYFRASYGYWGQGTQVTVSS | high polyreactivity
